The target in data set [1] is T1, hOgg1 N149C (8-oxoguanine DNA glycosylase) (Homo sapiens, UniProt O15527 12-327, N149C). In words: X-ray crystallography; disulfide cross-linked complex, dark (G*Odark), 2.81 A; Complex formation: 20 mM Tris-HCl, 100 mM NaCl, 1 mM EDTA pH 7.4, on ice overnight (12 nmol DNA, 24 nmol protein in 1.2 ml); purified by anion exchange and SEC; crystallized at 13 mg/ml. The note with it: protein: recombinant; tags: His-tag (pET28a, NdeI/XhoI); 5' overhang 1 nt on each strand.
T1 sequence (O15527 12-327 N149C): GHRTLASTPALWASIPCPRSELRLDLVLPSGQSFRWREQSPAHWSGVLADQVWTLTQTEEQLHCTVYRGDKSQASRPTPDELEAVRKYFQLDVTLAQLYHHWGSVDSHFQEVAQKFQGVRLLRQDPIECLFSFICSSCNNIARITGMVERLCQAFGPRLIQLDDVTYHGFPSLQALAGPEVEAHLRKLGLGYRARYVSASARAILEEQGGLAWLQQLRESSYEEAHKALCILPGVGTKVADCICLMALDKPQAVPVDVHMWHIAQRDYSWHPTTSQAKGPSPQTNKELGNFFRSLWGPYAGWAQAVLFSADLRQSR

The target of data set [2] is T1, hOgg1 N149C (8-oxoguanine DNA …). The data set is described as follows: X-ray crystallography; disulfide cross-linked complex, illuminated 365 nm (95 J) and cryotrapped (G*Olight), oG in active site at 68% occupancy, Ca2+ present, 2.48 A; Complex formation: 20 mM Tris-HCl, 100 mM NaCl, 1 mM EDTA pH 7.4, on ice overnight (12 nmol DNA, 24 nmol protein in 1.2 ml); purified by anion exchange and SEC; crystallized at 13 mg/ml. The note with it: protein: recombinant; tags: His-tag (pET28a, NdeI/XhoI); 5' overhang 1 nt on each strand.

B1: oG*/C‡ duplex (Table S1 entries 3 and 5) (dsDNA)
DNA 1: AGCGTCCAGGTCTACC
DNA 2: TGGTAGACCTGGACGC
modifications: strand 1 G9 = photocaged 8-oxoguanine (oG*); strand 2 C9 = N4-modified cytosine (C‡) for disulfide cross-linking
Consider B1, for which the binding result in data set [1] is reported as “binds”.

B2: oG/C‡ duplex, uncaged in crystallo by 365 nm light (dsDNA)
DNA 1: AGCGTCCAGGTCTACC
DNA 2: TGGTAGACCTGGACGC
modifications: strand 1 G9 = 8-oxoguanine (oG) after photodeprotection; strand 2 C9 = N4-modified cytosine (C‡), disulfide to Cys149
For the molecule B2, in data set [2], the binding result is on record as “binds”.

Values taken from PMC12403168, “Revisiting the co-crystal structure of a DNA glycosylase with photocaged substrate: a suitable time-resolved crystallography target?”.
